From patent US20090175889A1

Tests used:
Assay in all cases: cell-based or functional assay
[1] = molecular target: human CXCR4 (on U87 human astroglioma cells stably transduced with human CXCR4) (human) (UniProt P61073)
[2] = molecular target: HIV-1 89.6 Env triple glycan mutant N67V3 (N6, N7 and NV3: N187Q, N197Q, N301Q) (HIV-1 isolate 89.6) (UniProt Q73372)
[3] = molecular target: HIV-1 89.6 Env glycan mutant N7 (N197Q) (HIV-1 isolate 89.6) (UniProt Q73372)
[4] = molecular target: HIV-1 89.6 Env glycan mutant NV3 (N301Q) (HIV-1 isolate 89.6) (UniProt Q73372)

UniProt P61073, sequence (P61073 whole entry): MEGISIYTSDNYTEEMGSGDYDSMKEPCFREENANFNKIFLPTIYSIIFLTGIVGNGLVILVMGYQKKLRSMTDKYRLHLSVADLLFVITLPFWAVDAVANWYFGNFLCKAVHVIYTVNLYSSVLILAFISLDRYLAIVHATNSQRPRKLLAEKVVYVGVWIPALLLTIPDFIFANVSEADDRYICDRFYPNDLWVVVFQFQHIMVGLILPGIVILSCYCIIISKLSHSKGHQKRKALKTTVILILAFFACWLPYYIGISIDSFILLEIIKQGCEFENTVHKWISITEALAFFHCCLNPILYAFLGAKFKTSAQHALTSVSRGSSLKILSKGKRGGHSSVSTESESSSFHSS

Work on “HIV-1 89.6 Env glycan mutant N7 (N197Q) (from UniProt Q73372 32-853)” yielded a relative infectivity of pseudotyped virus in U87-CXCR4 cells in the absence of CD4 (vs WT virus) [1] of 10 fold.

Substance “HIV-1 89.6 Env glycan mutant NV3 (N301Q) (from UniProt Q73372 32-853)” has an increase in infectivity in CD4-negative cells as compared to WT Env [1] of 2 to 3 fold.

monoclonal antibody 4E10 gave an increase in neutralization sensitivity (vs WT) [2] of 3 fold and an increase in neutralization sensitivity (vs WT) [3] of 3 fold.

Substance “recombinant sCD4-Ig (from UniProt P01730 26-204) (Fc fusion)” has an enhancement in neutralization sensitivity compared to wild-type 89.6 [3] of 50 fold.

monoclonal antibody 2G12 was tested, and the decrease in neutralization sensitivity (vs WT) [4] was 2 to 3 fold and the increase in neutralization sensitivity (vs WT) [3] was 3 fold.

In the case of monoclonal antibody 17b, the sensitivity to 17b without sCD4, compared to the WT or the N6 and NV3 mutants in the presence of sCD4 [2] is reported as 30 fold and the sensitivity to 17b without sCD4, compared to the WT or the N6 and NV3 mutants in the presence of sCD4 [3] is reported as 30 fold.

Work on monoclonal antibody IgG1b12 yielded an enhancement in neutralization sensitivity compared to wild-type 89.6 [3] of 60 fold.
